Numbered stars: 1 amine (or outer) side, 2 acyl side, 3 side chain; on linkers, the order of the positions; unused ones are H or OH. Bridge positions count the residues as written; N and C are the ends. Square brackets hold non-standard residues; d marks the D form. Ends that are not written are not given here. X17 = 2‑((1S,2S)-1-(Amino)-2-methylbutyl)‑1,3‑oxazole‑4‑carboxylic acid, CC[C@H](C)[C@H](N[*:1])c1nc(C(=O)[*:2])co1; Pro(4-spirocPr) = O=C(O)[C@@H]1CC2(CC2)CN1; Oic = O=C(O)[C@@H]1C[C@@H]2CCCC[C@@H]2N1; tBuAla = CC(C)(C)C[C@H](N)C(=O)O; Pen = CC(C)(S)[C@H](N)C(=O)O; NMeC = CN[C@@H](CS)C(=O)O; NMeA = CN[C@@H](C)C(=O)O; Nle = CCCC[C@H](N)C(=O)O; PEG2 = NCCOCCOCCC(=O)O; Sar = CNCC(=O)O
T1: recombinant human MASP1 active protease (amino acids 297-699, C-terminal His Tag) (human, UniProt P48740 297-699)
T1 sequence: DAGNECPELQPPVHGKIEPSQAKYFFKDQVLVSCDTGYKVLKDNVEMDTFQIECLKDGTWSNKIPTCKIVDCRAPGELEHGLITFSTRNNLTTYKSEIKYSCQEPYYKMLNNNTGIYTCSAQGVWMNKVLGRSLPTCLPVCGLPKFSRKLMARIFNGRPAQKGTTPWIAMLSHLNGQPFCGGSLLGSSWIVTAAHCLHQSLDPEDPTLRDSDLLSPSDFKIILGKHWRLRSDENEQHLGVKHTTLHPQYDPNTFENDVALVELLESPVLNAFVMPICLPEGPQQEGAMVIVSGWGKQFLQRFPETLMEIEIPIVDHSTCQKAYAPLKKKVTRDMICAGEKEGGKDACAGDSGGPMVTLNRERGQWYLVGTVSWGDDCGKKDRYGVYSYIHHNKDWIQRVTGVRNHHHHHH

B1: (Nle)-IC+SRS-((tBu)A)-PPI-((N-Me)C)+I-NH2 (peptide)
peptide: [Nle]ICSRS[tBuAla]PPI[NMeC]I-NH2
modifications: disulfide 3-11; N-terminus assumed
SMILES: CCCC[C@H](N)C(=O)N[C@H](C(=O)N[C@H]1CSSC[C@@H](C(=O)N[C@H](C(N)=O)[C@@H](C)CC)N(C)C(=O)[C@H]([C@@H](C)CC)NC(=O)[C@@H]2CCCN2C(=O)[C@@H]2CCCN2C(=O)[C@H](CC(C)(C)C)NC(=O)[C@H](CO)NC(=O)[C@H](CCCNC(=N)N)NC(=O)[C@H](CO)NC1=O)[C@@H](C)CC
B2: AIC+SRS-((tBu)A)-P-((6S)-5-Azaspiro[2.4]heptane-6-carboxylic acid)-I-(Pen)+IPD-OH (peptide)
peptide: AICSRS[tBuAla]P[Pro(4-spirocPr)]I[Pen]IPD-OH
modifications: disulfide 3-11; N-terminus assumed
SMILES: CC[C@H](C)[C@H](NC(=O)[C@H](C)N)C(=O)N[C@H]1CSSC(C)(C)[C@@H](C(=O)N[C@H](C(=O)N2CCC[C@H]2C(=O)N[C@@H](CC(=O)O)C(=O)O)[C@@H](C)CC)NC(=O)[C@H]([C@@H](C)CC)NC(=O)[C@@H]2CC3(CC3)CN2C(=O)[C@@H]2CCCN2C(=O)[C@H](CC(C)(C)C)NC(=O)[C@H](CO)NC(=O)[C@H](CCCNC(=N)N)NC(=O)[C@H](CO)NC1=O
B3: AIC+SRSLP-((6S)-5-Azaspiro[2.4]heptane-6-carboxylic acid)-I-(Pen)+IPD-OH (peptide)
peptide: AICSRSLP[Pro(4-spirocPr)]I[Pen]IPD-OH
modifications: disulfide 3-11; N-terminus assumed
SMILES: CC[C@H](C)[C@H](NC(=O)[C@H](C)N)C(=O)N[C@H]1CSSC(C)(C)[C@@H](C(=O)N[C@H](C(=O)N2CCC[C@H]2C(=O)N[C@@H](CC(=O)O)C(=O)O)[C@@H](C)CC)NC(=O)[C@H]([C@@H](C)CC)NC(=O)[C@@H]2CC3(CC3)CN2C(=O)[C@@H]2CCCN2C(=O)[C@H](CC(C)C)NC(=O)[C@H](CO)NC(=O)[C@H](CCCNC(=N)N)NC(=O)[C@H](CO)NC1=O
B4: ((N-Me)A)-IC+SRS-((tBu)A)-P-(Oic)-I-(Pen)+IP-NH2 (peptide)
peptide: [NMeA]ICSRS[tBuAla]P[Oic]I[Pen]IP-NH2
modifications: disulfide 3-11; N-terminus assumed
SMILES: CC[C@H](C)[C@H](NC(=O)[C@H](C)NC)C(=O)N[C@H]1CSSC(C)(C)[C@@H](C(=O)N[C@H](C(=O)N2CCC[C@H]2C(N)=O)[C@@H](C)CC)NC(=O)[C@H]([C@@H](C)CC)NC(=O)[C@@H]2C[C@@H]3CCCC[C@@H]3N2C(=O)[C@@H]2CCCN2C(=O)[C@H](CC(C)(C)C)NC(=O)[C@H](CO)NC(=O)[C@H](CCCNC(=N)N)NC(=O)[C@H](CO)NC1=O
B5: RIC+SRS-((tBu)A)-PPI-((N-Me)C)+I-NH2 (peptide)
peptide: RICSRS[tBuAla]PPI[NMeC]I-NH2
modifications: disulfide 3-11; N-terminus assumed
SMILES: CC[C@H](C)[C@H](NC(=O)[C@@H]1CSSC[C@H](NC(=O)[C@@H](NC(=O)[C@@H](N)CCCNC(=N)N)[C@@H](C)CC)C(=O)N[C@@H](CO)C(=O)N[C@@H](CCCNC(=N)N)C(=O)N[C@@H](CO)C(=O)N[C@@H](CC(C)(C)C)C(=O)N2CCC[C@H]2C(=O)N2CCC[C@H]2C(=O)N[C@@H]([C@@H](C)CC)C(=O)N1C)C(N)=O
B6: AIC+SRS-((tBu)A)-PPI-(Pen)+IPe-NH2 (peptide)
peptide: AICSRS[tBuAla]PPI[Pen]IP[dE]-NH2
modifications: disulfide 3-11; N-terminus assumed
SMILES: CC[C@H](C)[C@H](NC(=O)[C@H](C)N)C(=O)N[C@H]1CSSC(C)(C)[C@@H](C(=O)N[C@H](C(=O)N2CCC[C@H]2C(=O)N[C@H](CCC(=O)O)C(N)=O)[C@@H](C)CC)NC(=O)[C@H]([C@@H](C)CC)NC(=O)[C@@H]2CCCN2C(=O)[C@@H]2CCCN2C(=O)[C@H](CC(C)(C)C)NC(=O)[C@H](CO)NC(=O)[C@H](CCCNC(=N)N)NC(=O)[C@H](CO)NC1=O
B7: ((N-Me)A)-IC+SRS-((tBu)A)-PPI-(Pen)+IPD-NH2 (peptide)
peptide: [NMeA]ICSRS[tBuAla]PPI[Pen]IPD-NH2
modifications: disulfide 3-11; N-terminus assumed
SMILES: CC[C@H](C)[C@H](NC(=O)[C@H](C)NC)C(=O)N[C@H]1CSSC(C)(C)[C@@H](C(=O)N[C@H](C(=O)N2CCC[C@H]2C(=O)N[C@@H](CC(=O)O)C(N)=O)[C@@H](C)CC)NC(=O)[C@H]([C@@H](C)CC)NC(=O)[C@@H]2CCCN2C(=O)[C@@H]2CCCN2C(=O)[C@H](CC(C)(C)C)NC(=O)[C@H](CO)NC(=O)[C@H](CCCNC(=N)N)NC(=O)[C@H](CO)NC1=O
B8: AIC+SRS-((tBu)A)-PPIC+I-NH2 (peptide)
peptide: AICSRS[tBuAla]PPICI-NH2
modifications: disulfide 3-11; N-terminus assumed
SMILES: CC[C@H](C)[C@H](NC(=O)[C@@H]1CSSC[C@H](NC(=O)[C@@H](NC(=O)[C@H](C)N)[C@@H](C)CC)C(=O)N[C@@H](CO)C(=O)N[C@@H](CCCNC(=N)N)C(=O)N[C@@H](CO)C(=O)N[C@@H](CC(C)(C)C)C(=O)N2CCC[C@H]2C(=O)N2CCC[C@H]2C(=O)N[C@@H]([C@@H](C)CC)C(=O)N1)C(N)=O
B9: AIC+SRS-((tBu)A)-PPI-((N-Me)C)+I-NH2 (peptide)
peptide: AICSRS[tBuAla]PPI[NMeC]I-NH2
modifications: disulfide 3-11; N-terminus assumed
SMILES: CC[C@H](C)[C@H](NC(=O)[C@@H]1CSSC[C@H](NC(=O)[C@@H](NC(=O)[C@H](C)N)[C@@H](C)CC)C(=O)N[C@@H](CO)C(=O)N[C@@H](CCCNC(=N)N)C(=O)N[C@@H](CO)C(=O)N[C@@H](CC(C)(C)C)C(=O)N2CCC[C@H]2C(=O)N2CCC[C@H]2C(=O)N[C@@H]([C@@H](C)CC)C(=O)N1C)C(N)=O
B10: AIC+SRS-((tBu)A)-PPI-((N-Me)C)+(2-[(1S,2S)-1-(Amino)-2-methylbutyl]-1,3-oxazole-4-carboxylic acid)-D-NH2 (peptide)
peptide: AICSRS[tBuAla]PPI[NMeC][X17]D-NH2
modifications: disulfide 3-11; N-terminus assumed
SMILES: CC[C@H](C)[C@H](NC(=O)[C@H](C)N)C(=O)N[C@H]1CSSC[C@@H](C(=O)N[C@H](c2nc(C(=O)N[C@@H](CC(=O)O)C(N)=O)co2)[C@@H](C)CC)N(C)C(=O)[C@H]([C@@H](C)CC)NC(=O)[C@@H]2CCCN2C(=O)[C@@H]2CCCN2C(=O)[C@H](CC(C)(C)C)NC(=O)[C@H](CO)NC(=O)[C@H](CCCNC(=N)N)NC(=O)[C@H](CO)NC1=O
B11: AIC+SRS-((tBu)A)-PPI-(Pen)+IPn-NH2 (peptide)
peptide: AICSRS[tBuAla]PPI[Pen]IP[dN]-NH2
modifications: disulfide 3-11; N-terminus assumed
SMILES: CC[C@H](C)[C@H](NC(=O)[C@H](C)N)C(=O)N[C@H]1CSSC(C)(C)[C@@H](C(=O)N[C@H](C(=O)N2CCC[C@H]2C(=O)N[C@H](CC(N)=O)C(N)=O)[C@@H](C)CC)NC(=O)[C@H]([C@@H](C)CC)NC(=O)[C@@H]2CCCN2C(=O)[C@@H]2CCCN2C(=O)[C@H](CC(C)(C)C)NC(=O)[C@H](CO)NC(=O)[C@H](CCCNC(=N)N)NC(=O)[C@H](CO)NC1=O
B12: KIC+SRS-((tBu)A)-PPI-((N-Me)C)+IPD-NH2 (peptide)
peptide: KICSRS[tBuAla]PPI[NMeC]IPD-NH2
modifications: disulfide 3-11; N-terminus assumed
SMILES: CC[C@H](C)[C@H](NC(=O)[C@@H](N)CCCCN)C(=O)N[C@H]1CSSC[C@@H](C(=O)N[C@H](C(=O)N2CCC[C@H]2C(=O)N[C@@H](CC(=O)O)C(N)=O)[C@@H](C)CC)N(C)C(=O)[C@H]([C@@H](C)CC)NC(=O)[C@@H]2CCCN2C(=O)[C@@H]2CCCN2C(=O)[C@H](CC(C)(C)C)NC(=O)[C@H](CO)NC(=O)[C@H](CCCNC(=N)N)NC(=O)[C@H](CO)NC1=O
B13: RIC+SRS-((tBu)A)-PPI-((N-Me)C)+IPD-NH2 (peptide)
peptide: RICSRS[tBuAla]PPI[NMeC]IPD-NH2
modifications: disulfide 3-11; N-terminus assumed
SMILES: CC[C@H](C)[C@H](NC(=O)[C@@H](N)CCCNC(=N)N)C(=O)N[C@H]1CSSC[C@@H](C(=O)N[C@H](C(=O)N2CCC[C@H]2C(=O)N[C@@H](CC(=O)O)C(N)=O)[C@@H](C)CC)N(C)C(=O)[C@H]([C@@H](C)CC)NC(=O)[C@@H]2CCCN2C(=O)[C@@H]2CCCN2C(=O)[C@H](CC(C)(C)C)NC(=O)[C@H](CO)NC(=O)[C@H](CCCNC(=N)N)NC(=O)[C@H](CO)NC1=O

Target: T1, recombinant human MASP1 active protease …
Assay: cell-based or functional assay

| human MASP1 IC50 | Binder |
| --- | --- |
| 1.7 nM | [Sar]ICSRS[tBuAla]PPI[Pen]IP[PEG2]-NH2 (disulfide 3-11; also: HCl salt) [((N-Me)G)-IC+SRS-((tBu)A)-PPI-(Pen)+IP-(PEG1(10 atoms))-NH2 (HCl salt)] |
| 1.5 nM | B1 |
| 1.57 nM | B2 |
| 1.65 nM | B3 |
| 1.4 nM | B4 |
| 1.7 nM | B5 |
| 1.53 nM | AICSRS[tBuAla]PPI[NMeC]IPD-NH2 (disulfide 3-11; also: HCl salt) [AIC+SRS-((tBu)A)-PPI-((N-Me)C)+IPD-NH2 (HCl salt)] |
| 1.4 nM | B6 |
| 1.43 nM | B7 |
| 1.7 nM | B8 |
| 1.5 nM | B9 |
| 1.4 nM | B10 |
| 1.4 nM | B11 |
| 1.65 nM | B12 |
| 1.36 nM | B13 |

Target: recombinant human MASP2 active protease (amino acids 297-686, C-terminal His Tag) (human, UniProt O00187 297-686)
Sequence (O00187 other isoform, or with tags, fused parts or gaps limits assumed): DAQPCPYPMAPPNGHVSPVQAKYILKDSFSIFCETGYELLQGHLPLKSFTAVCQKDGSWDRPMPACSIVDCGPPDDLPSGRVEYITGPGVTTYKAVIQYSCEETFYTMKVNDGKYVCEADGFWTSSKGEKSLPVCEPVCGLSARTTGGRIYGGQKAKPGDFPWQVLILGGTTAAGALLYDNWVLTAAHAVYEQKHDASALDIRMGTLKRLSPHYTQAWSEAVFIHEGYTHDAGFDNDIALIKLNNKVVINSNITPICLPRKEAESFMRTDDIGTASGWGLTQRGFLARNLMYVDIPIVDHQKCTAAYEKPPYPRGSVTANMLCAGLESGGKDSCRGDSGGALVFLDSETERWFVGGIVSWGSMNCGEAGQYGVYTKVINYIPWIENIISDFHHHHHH
Assay: cell-based or functional assay

| human MASP2 IC50 | Binder |
| --- | --- |
| 31 nM | [Sar]ICSRS[tBuAla]PPI[Pen]IP[PEG2]-NH2 (disulfide 3-11; also: HCl salt) [((N-Me)G)-IC+SRS-((tBu)A)-PPI-(Pen)+IP-(PEG1(10 atoms))-NH2 (HCl salt)] |
| 56 nM | B1 |
| 17.7 nM | B2 |
| 26 nM | B3 |
| 40 nM | B4 |
| 87 nM | B5 |
| 140 nM | AICSRS[tBuAla]PPI[NMeC]IPD-NH2 (disulfide 3-11; also: HCl salt) [AIC+SRS-((tBu)A)-PPI-((N-Me)C)+IPD-NH2 (HCl salt)] |
| 62 nM | B6 |
| 98 nM | B7 |
| 120 nM | B8 |
| 100 nM | B9 |
| 720 nM | B10 |
| 53 nM | B11 |
| 120 nM | B12 |
| 100 nM | B13 |

From patent US20210246166A1 (Bayer, published 2021)
